The source of these data is publication PMC8946150, “Microsphere Peptide-Based Immunoassay for the Detection of Recombinant Bovine Somatotropin in Injection Preparations” (Biosensors, 2022).

Substitutions are numbered along the chain they refer to.

The test system of experiment [1] is MAb 4H12. Briefly: Epitope mapping of rbST for MAb 4H12 (Pepscan, ELISA-type read out). In kind it is binding. The settings on record: all four epitope designs (sets 1-4: linear 15-mers, double-Ala, α-helical loop mimics). The text has this:
The entire sequence of rbST (Figure 1A) was epitope mapped for antibody 4H12 by Pepscan Presto BV (Lelystad, The Netherlands), as described before. Briefly, the rbST sequence was derived from the endogenous bST sequence by replacing the N-terminal alanine (Ala) with a methionine (Met) residue. With this rbST sequence, four sets of peptides were produced and used to determine the binding epitope of MAb 4H12: (i) linear peptides of 15 amino acids in length with an offset of one amino acid (set 1), (ii) linear peptides similar to set 1, with the amino acids on place 10 and 11 replaced by alanine (Ala); a native Ala present on place 10 and/or 11 was replaced by glycine (Gly) (set 2), (iii) α-helical loop mimics of 21 amino acids in length with an offset of one amino acid and cysteine residues on place 1 and 5 to enable connection with an α-helix-inducing mP2 chemical linkage of peptides onto scaffolds (CLIPS, set 3) and (iv) α-helical loop mimics similar to set 3, with the two Cys residues placed on amino acid numbers 1 and 8, which were also linked with mP2 CLIPS (set 4). Binding of Mab 4H12 to the described peptides is quantified using an ELISA-type read out.
Figure 1 Schematic representation of the four epitope mapping approaches to identify peptide-based mimics of recombinant bovine somatotropin (rbST) that bind to the monoclonal antibody 4H12. […]

The test system of experiment [2] is MAb 4H12. Nature of the experiment: MIPA binding of MAb 4H12 to peptide- or rbST-coupled microspheres. The settings on record: peptide or protein coupled to microspheres, MAGPIX read-out. The method, then: (§1) Microsphere preparation was executed according to Bremer et al. with the exception that Magplex® microsphere sets instead of seroMAP microspheres were used. During the procedure, microspheres were trapped using a magnet (1 min) and after removal of the supernatant, trapped microspheres were resuspended by vortexing (1 min). The peptides pep, pep-K, pep-peg, pep-aca and rbST standard were coupled to the different internally dyed microsphere sets, i.e., microsphere set numbers 012, 043, 029, 038 and 064, respectively (Figure 2). The internal dye gives the microsphere set a unique spectral signature, and consequently, a unique read-out region. For each microsphere set, 2.5 × 10^6 microspheres were covalently coupled with a two-step carbodiimide reaction using 500 μL of 100 µg mL^−1 peptide in boric acid solution (100 mM boric acid, 1M NaCl, adjusted to pH 8.3 with NaOH), and 100 µg mL^−1 rbST in MES buffer (50 mM MES pH 5.0). After coupling, the microspheres were stable for over 1 year when stored in a blocking buffer (PBS, 0.1% BSA, 0.02% Tween-20 and 0.05% NaN3) at 2–8 °C in the dark until use, with the exception for the microspheres measured with XPS, which were stored in Milli-Q water until use.
(§2) In this procedure, all dilution and washing steps were executed using PBST containing 0.1% BSA. In total, 100 μL of rbST, eST, pST and hST standard solution or injection preparation extract were added to a low bind 96-well microtiter plate. Next, 10 μL of 20-, 2-, 2-, 1- and 0.7 ng mL^−1 antibody for microspheres coated with, respectively, pep, pep-peg, pep-aca, k-pep and rbST and microspheres (10 μL diluted suspension containing about 1250 microspheres per microsphere set) were added to each well. The microtiter plate was incubated for 20 min on a microtiter plate shaker to allow competition between the immobilized rbST epitope peptides or protein on the microspheres and the somatotropin (ST) present in the solution for the available antibody binding sites. After incubation, the microspheres were trapped by a magnet and washed twice. After washing, a 125 μL, 625-times diluted PE labeled Goat anti Mouse antibody was added and incubated for 20 min on a microtiter plate shaker. After this incubation step, microspheres were trapped with a magnet, supernatant removed and 125 µL PBST containing 0.1% BSA added. The plate was briefly mixed on the microtiter plate shaker before measuring on the imaging planar array analyzer (MAGPIX).

The test system of experiment [3] is MAb 4H12. Briefly: Inhibition MIPA (microsphere peptide-based immunoassay, indirect competitive format, MAGPIX). The class given is binding. The settings on record: for recognition / cross-reactivity of somatotropins with MAb 4H12: calibration curves up to 100 µg mL^-1, PBST/BSA; for concentration of full inhibition: somatotropin as competitor in PBST/BSA. The procedure:
as §1, §2
Figure 3 Summarized workflow and assay principle of the indirect competitive assay format for somatotropins. In absence of rbST (upper part), MAb 4H12 binds to the peptide-coated microspheres, which enables binding of the PE coupled secondary antibody. The presence of PE results in a high signal in the imaging planar array analyzer. In presence of rbST (lower part), MAb 4H12 binds to the rbST in solution. […] As no PE is present, this will result in a low signal in the imaging planar array analyzer.

For experiment [4], the system named is MAb 4H12. Briefly: Surface plasmon resonance, MAb 4H12 on immobilized rbST or pep-peg. In kind it is binding. The text has this:
(§3) Although the literature often describes the need for spacers in peptide-based biorecognition assays, in our assay format based on the MAb 4H12 and the peptide 115[…]125 biorecognition pair, no spacers were required. […] The presence of peptides on the microspheres was proven by XPS measurements (Supplementary Materials, Figure S2). In addition, the specificity was compared by initial surface plasmon resonance (SPR) experiments, where the pep-peg peptide was coupled to one microfluidic channel and rbST to another channel of the sensor surface. The sensor channels were incubated with two different rbST-induced monoclonal antibodies, MAb 4H12, which specifically binds the peptide 115[…]125 and MAb 5E2, which recognizes another, yet unknown, epitope. […] Next, MAb 4H12 concentrations were optimized for the microsphere peptide-based immunoassay to a dilution factor corresponding to a signal intensity of 1000 MFI for the blank standard (dilution buffer, Supplementary Materials, Table S2). […] The antibody concentrations in combination with the respective microspheres were used to determine the sensitivity of MAb 4H12 for the determination of full rbST-protein in standard solutions, as shown in Figure 4. For bot, rbST-protein and peptide immobilized microspheres, typical dose-response curves were obtained, with IC50 values of, respectively, 0.20 µg mL^−1 and 0.11 µg mL^−1.
Background: SPR reads the build-up and loss of mass on a sensor chip optically.

For the next experiment, the system named is MAb 5E2. Nature of the experiment: Surface plasmon resonance, MAb 5E2 on immobilized rbST or pep-peg. In kind it is binding.
Source text: as §3

Another experiment relates to dairy cows. The settings on record: according to the manufacturer's protocol; cited from earlier work. The text has this: RbST is a 191 amino acid long protein hormone that enhances growth and lactating performance in cattle. When administered to dairy cows according to the manufacturer’s protocol, milk production can increase up to 25% [11]. The use of rbST for milk-enhancing properties is approved in several countries, but is banned in the European Union. To control this ban, a strategy to detect rbST misuse in the EU has been described by Smits et al.. The strategy for rbST in serum and milk from dairy cows is based on the digestion of the proteins and detection of rbST-specific peptides formed ...

[5] abbreviates: microspheres coupled with pep, n = 2.

For DLEEGILALMR [pep], the “binding between MAb 4H12 and epitope sequence” value in the experiment with MAb 4H12 [1] is given as “binding”. Besides, the “binding of MAb 4H12 to coupled microspheres” value in the experiment with MAb 4H12 [2] is recorded as “showed binding”.

With “MRIEGLADLEL [pep-scr, linear peptide scrambled]”, the figures for the “binding of MAb 4H12 to coupled microspheres” value in the experiment on MAb 4H12 [2] and in the experiment with MAb 4H12 [2] (listed as scrambled peptide) were “did not show any binding” and “no binding occurred”, respectively.

In the case of “hST: human Somatotropin from Sigma-Aldrich”, the “recognition / cross-reactivity of somatotropins with MAb 4H12” value (shortened to “recognition / cross-reactivity”) in the experiment on MAb 4H12 [3] (setting [5]) is “not able to recognize and bind”.

B1: rbST: 191 amino acid long protein hormone; rbST protein standard from NHPP (Dr. Parlow) (protein, UniProt P01246 27-217, looked up)
Somatotropin: AFPAMSLSGLFANAVLRAQHLHQLAADTFKEFERTYIPEGQRYSIQNTQVAFCFSETIPAPTGKNEAQQKSDLELLRISLLLIQSWLGPLQFLSRVFTNSLVFGTSDRVYEKLKDLEEGILALMRELEDGTPRAGQILKQTYDKFDTNMRSDDALLKNYGLLSCFRKDLHKTETYLRVMKCRRFGEASCAF
As to B1, the “SPR binding of MAb 4H12” value with MAb 4H12 [4] was “Both MAbs showed binding”. Moreover, the “SPR binding of MAb 5E2” value in the experiment with MAb 5E2 was “Both MAbs showed binding”. The “IC50 of rbST in inhibition MIPA, per microsphere set” value in the experiment on MAb 4H12 [3] (competitor rbST in PBST/0.1% BSA, label = peptide or protein coupled to the microspheres, MAb 4H12 20, 2, 2, 1, 0.7 ng mL^-1 for pep, pep-peg, pep-aca, pep-K, rbST, 20 min incubation, GAM-PE, MAGPIX, four-parameter fit, n = 3) came to 0.20 µg/mL. In addition, in the experiment on MAb 4H12 [3] (somatotropin as competitor at 1 µg mL^-1 in PBST/BSA, microspheres coupled with pep, n = 2), the “inhibition of MAb 4H12 at 1 µg mL^-1” value was “almost completely inhibits”. The “increase of milk production” value in the experiment with dairy cows is recorded as “up to 25%”. Besides, the “binding of MAb 4H12 to coupled microspheres” value in the experiment with MAb 4H12 [2] is “showed binding”.

B2: eST: equine somatotropin from Bresagen (protein, UniProt P01245 27-216, looked up)
Somatotropin: FPAMPLSSLFANAVLRAQHLHQLAADTYKEFERAYIPEGQRYSIQNAQAAFCFSETIPAPTGKDEAQQRSDMELLRFSLLLIQSWLGPVQLLSRVFTNSLVFGTSDRVYEKLRDLEEGIQALMRELEDGSPRAGQILKQTYDKFDTNLRSDDALLKNYGLLSCFKKDLHKAETYLRVMKCRRFVESSCAF
For B2, in the experiment on MAb 4H12 [3] (setting [5]), the “recognition / cross-reactivity” value was “cross-reactivity was seen” and the “concentration of full inhibition” value is on record as “around 100 µg mL^-1”.

B3: pST: Porcine Somatotropin from Sigma-Aldrich (protein, UniProt P01248 27-216, looked up)
Somatotropin: B2 Somatotropin with M72V, L91F, R113K
Consider B3, for which, in the experiment on MAb 4H12 [3] (setting [5]), the “recognition / cross-reactivity” value is listed as “cross-reactivity was seen” and the “concentration of full inhibition” value is “around 100 µg mL^-1”.
